Reference: PMC12436594, “Probing three-dimensional cyclooctatetraene for nucleobase modification in aptamer selection”

Molecular target: PvLDH (lactate dehydrogenase) (Plasmodium vivax, UniProt Q4PRK9 1-316)
Assay: flow cytometry (Ni-NTA beads)
Conditions: protein: recombinant; tags: His6; chain copies: 4

B1: N15 unmodified (ssDNA)
DNA: CACTCACGTCAGTGACATGCAGGTCCTCTCGCCCCCAGTGACTTGCGTGGTCAGAAATTTCGCACCAC
Kd: ~208 nM
